The labels stand for the following.
B1: glmS ribozyme (parent)
chain: AUAAAAGCGCCAGAACUACAGAAAUGUAGUUGACGAGGAGGAGGUUUAUCGAAUUUUCGGCGGAUGCCUCCAAA

Holding throughout (details): with glucosamine-6-phosphate
In series [1] the parent is B1. Description: kcat; higher = faster cleavage; RNA array. A digest of the protocol:
(§1)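 A hybridised Cy3 probe tracked barcoded ribozyme variants, transcribed in situ by E. coli RNA polymerase on sequenced MiSeq chips, at 37 °C. The variants received 40 μM to 10 mM glucosamine-6-phosphate in HEPES/KCl/Mg(OAc)2 buffer. kobs came from decay fits and kcat and KM from weighted Michaelis–Menten fits.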

Series [2] covers variants of B1. Description: KM; higher = weaker cofactor use; RNA array. In outline: as §1
The variants in series [3] derive from B1. Description: self-cleavage kobs at 160 uM GlcN6P; higher = faster cleavage; RNA array. In outline:
as §1

The variants in series [4] derive from B1. In words: self-cleavage kobs at 640 uM GlcN6P; higher = faster cleavage; RNA array. In outline:
as §1

Variants of B1 are the subject of series [5]. In words: self-cleavage kobs at 2500 uM GlcN6P; higher = faster cleavage; RNA array. A digest of the protocol:
as §1

The variants in series [6] derive from B1. Description: self-cleavage kobs at 10000 uM GlcN6P; higher = faster cleavage; RNA array. A digest of the protocol:
as §1

In series [7] the parent is B1. In words: self-cleavage kobs at 40 uM GlcN6P; higher = faster cleavage; RNA array. A digest of the protocol:
as §1

This note sets out measurements from the supplement of paper PMC7125110.

By kcat is commonly meant the maximal rate divided by the concentration of active sites. The KM is the substrate concentration at which the rate is half of its maximum.

± gives the standard error. For part of these data: This sample holds only a part of the variants without activity. Where only a bound is given, the exact number is not on record here.

Regarding A39C U46G, in the series with glucosamine-6-phosphate [1], the kcat is 0.000897 ± 0.00012 s⁻¹. Moreover, in the series with glucosamine-6-phosphate [2], the KM came out at 2 ± 0.42 mM. Also, the “self-cleavage kobs at 160 uM GlcN6P” value with glucosamine-6-phosphate [3] stood at 6.87e-05 ± 9.7e-06 s⁻¹. In addition, the “self-cleavage kobs at 640 uM GlcN6P” value with glucosamine-6-phosphate [4] amounted to 0.000224 ± 2e-05 s⁻¹. Further, the “self-cleavage kobs at 2500 uM GlcN6P” value with glucosamine-6-phosphate [5] was found to be 0.00042 ± 6.2e-05 s⁻¹. Moreover, the “self-cleavage kobs at 10000 uM GlcN6P” value with glucosamine-6-phosphate [6] is 0.000829 ± 0.0001 s⁻¹.
On to G40U U47A, for which the kcat with glucosamine-6-phosphate [1] stood at 0.00153 ± 0.00048 s⁻¹. In addition, the KM with glucosamine-6-phosphate [2] is 1.68 ± 0.73 mM. In addition, in the series with glucosamine-6-phosphate [7], the “self-cleavage kobs at 40 uM GlcN6P” value worked out at 6.16e-05 ± 2.8e-05 s⁻¹. In addition, the “self-cleavage kobs at 160 uM GlcN6P” value in the series with glucosamine-6-phosphate [3] came to 0.000114 ± 2.9e-05 s⁻¹. In the series with glucosamine-6-phosphate [4], the “self-cleavage kobs at 640 uM GlcN6P” value is 0.000565 ± 0.0002 s⁻¹. Further, the “self-cleavage kobs at 2500 uM GlcN6P” value with glucosamine-6-phosphate [5] amounted to 0.00134 ± 0.00045 s⁻¹. Further, the “self-cleavage kobs at 10000 uM GlcN6P” value with glucosamine-6-phosphate [6] worked out at 0.00115 ± 0.00037 s⁻¹.
Regarding U55C G66U, in the series with glucosamine-6-phosphate [1], the kcat came out at 0.00114 ± 0.00044 s⁻¹. In the series with glucosamine-6-phosphate [7], the “self-cleavage kobs at 40 uM GlcN6P” value turned out to be 6.69e-05 ± 1.8e-05 s⁻¹. Moreover, the “self-cleavage kobs at 160 uM GlcN6P” value with glucosamine-6-phosphate [3] was 0.000202 ± 5.7e-05 s⁻¹. Besides, the “self-cleavage kobs at 640 uM GlcN6P” value in the series with glucosamine-6-phosphate [4] amounted to 0.000297 ± 5.7e-05 s⁻¹. Further, in the series with glucosamine-6-phosphate [5], the “self-cleavage kobs at 2500 uM GlcN6P” value amounted to 0.00105 ± 0.00021 s⁻¹. Also, in the series with glucosamine-6-phosphate [6], the “self-cleavage kobs at 10000 uM GlcN6P” value was found to be 0.00102 ± 0.00022 s⁻¹.
G35C A52G: the kcat in the series with glucosamine-6-phosphate [1] is less than 1e-05 s⁻¹. Moreover, the “self-cleavage kobs at 160 uM GlcN6P” value with glucosamine-6-phosphate [3] is less than 1e-05 s⁻¹. Besides, the “self-cleavage kobs at 640 uM GlcN6P” value in the series with glucosamine-6-phosphate [4] is less than 1e-05 s⁻¹. Also, the “self-cleavage kobs at 10000 uM GlcN6P” value with glucosamine-6-phosphate [6] is less than 1e-05 s⁻¹.
For the variant A42C C67G, the kcat with glucosamine-6-phosphate [1] came to 8.04e-05 ± 1.5e-05 s⁻¹. Further, the “self-cleavage kobs at 2500 uM GlcN6P” value in the series with glucosamine-6-phosphate [5] amounted to 6.32e-05 ± 1.4e-05 s⁻¹. In addition, the “self-cleavage kobs at 10000 uM GlcN6P” value in the series with glucosamine-6-phosphate [6] came out at 6.4e-05 ± 4.6e-06 s⁻¹.
On to U31A A33U, for which, in the series with glucosamine-6-phosphate [1], the kcat was determined as 2.01e-05 ± 3.8e-06 s⁻¹. For the same variant, the “self-cleavage kobs at 40 uM GlcN6P” value in the series with glucosamine-6-phosphate [7] was less than 1e-05 s⁻¹.
In the case of A14G C50U, the kcat in the series with glucosamine-6-phosphate [1] was determined as 0.000229 ± 4.9e-05 s⁻¹. Besides, in the series with glucosamine-6-phosphate [2], the KM is 7.96 ± 3 mM. The “self-cleavage kobs at 640 uM GlcN6P” value with glucosamine-6-phosphate [4] was 3.25e-05 ± 1.6e-05 s⁻¹. The “self-cleavage kobs at 2500 uM GlcN6P” value in the series with glucosamine-6-phosphate [5] was determined as 5.19e-05 ± 9.6e-06 s⁻¹. The “self-cleavage kobs at 10000 uM GlcN6P” value with glucosamine-6-phosphate [6] came out at 0.000128 ± 1.5e-05 s⁻¹.
For U45G U69G, the kcat with glucosamine-6-phosphate [1] worked out at 0.000184 ± 5.8e-05 s⁻¹. The “self-cleavage kobs at 10000 uM GlcN6P” value in the series with glucosamine-6-phosphate [6] is 0.000152 ± 3.8e-05 s⁻¹.
On to A15C G40C, for which the kcat with glucosamine-6-phosphate [1] worked out at 0.000353 ± 6.6e-05 s⁻¹. In addition, the KM with glucosamine-6-phosphate [2] was 1.23 ± 0.42 mM. The “self-cleavage kobs at 160 uM GlcN6P” value with glucosamine-6-phosphate [3] was determined as 5.62e-05 ± 7.5e-06 s⁻¹. For the same variant, the “self-cleavage kobs at 640 uM GlcN6P” value in the series with glucosamine-6-phosphate [4] was determined as 0.000109 ± 9.3e-06 s⁻¹. For the same variant, the “self-cleavage kobs at 2500 uM GlcN6P” value with glucosamine-6-phosphate [5] turned out to be 0.000234 ± 2.4e-05 s⁻¹. Further, the “self-cleavage kobs at 10000 uM GlcN6P” value with glucosamine-6-phosphate [6] turned out to be 0.000343 ± 3.9e-05 s⁻¹.
For the variant A12G C71A, in the series with glucosamine-6-phosphate [1], the kcat is 0.000639 ± 4.4e-05 s⁻¹. Moreover, the KM with glucosamine-6-phosphate [2] turned out to be 4.88 ± 0.5 mM. Further, the “self-cleavage kobs at 640 uM GlcN6P” value in the series with glucosamine-6-phosphate [4] was found to be 7.45e-05 ± 1e-05 s⁻¹. In addition, the “self-cleavage kobs at 2500 uM GlcN6P” value with glucosamine-6-phosphate [5] came out at 0.000215 ± 3.9e-05 s⁻¹. Moreover, in the series with glucosamine-6-phosphate [6], the “self-cleavage kobs at 10000 uM GlcN6P” value was found to be 0.00043 ± 5.9e-05 s⁻¹.
For A12G U31C, the kcat with glucosamine-6-phosphate [1] stood at 0.000113 ± 7.3e-06 s⁻¹. Also, the KM in the series with glucosamine-6-phosphate [2] was determined as 4.09 ± 0.63 mM. The “self-cleavage kobs at 2500 uM GlcN6P” value with glucosamine-6-phosphate [5] is 4.42e-05 ± 9.5e-06 s⁻¹. Also, in the series with glucosamine-6-phosphate [6], the “self-cleavage kobs at 10000 uM GlcN6P” value was 7.95e-05 ± 1.1e-05 s⁻¹.
For G41C U56A, the kcat with glucosamine-6-phosphate [1] was determined as 0.000159 ± 4.4e-05 s⁻¹. Besides, in the series with glucosamine-6-phosphate [4], the “self-cleavage kobs at 640 uM GlcN6P” value was 2.18e-05 ± 1e-05 s⁻¹. In the series with glucosamine-6-phosphate [5], the “self-cleavage kobs at 2500 uM GlcN6P” value was determined as 0.000129 ± 3e-05 s⁻¹. Besides, in the series with glucosamine-6-phosphate [6], the “self-cleavage kobs at 10000 uM GlcN6P” value came to 0.000121 ± 1.5e-05 s⁻¹.
In the case of A12C A64C, in the series with glucosamine-6-phosphate [1], the kcat stood at 0.000233 ± 1.8e-05 s⁻¹. In addition, the KM with glucosamine-6-phosphate [2] was 4.85 ± 0.77 mM. Also, the “self-cleavage kobs at 2500 uM GlcN6P” value with glucosamine-6-phosphate [5] turned out to be 8.34e-05 ± 1.5e-05 s⁻¹. Moreover, in the series with glucosamine-6-phosphate [6], the “self-cleavage kobs at 10000 uM GlcN6P” value is 0.000156 ± 2e-05 s⁻¹.
In the case of G40C U45G, the kcat with glucosamine-6-phosphate [1] was 0.000791 ± 0.00034 s⁻¹. The “self-cleavage kobs at 160 uM GlcN6P” value with glucosamine-6-phosphate [3] worked out at 9.8e-05 ± 1.7e-05 s⁻¹. Also, the “self-cleavage kobs at 640 uM GlcN6P” value in the series with glucosamine-6-phosphate [4] came out at 0.000646 ± 0.00013 s⁻¹. The “self-cleavage kobs at 2500 uM GlcN6P” value with glucosamine-6-phosphate [5] came out at 0.000445 ± 7.5e-05 s⁻¹. In addition, in the series with glucosamine-6-phosphate [6], the “self-cleavage kobs at 10000 uM GlcN6P” value came out at 0.00114 ± 0.00025 s⁻¹.
As for U45G U55A, the kcat with glucosamine-6-phosphate [1] amounted to 0.00686 ± 0.00089 s⁻¹. Further, the KM in the series with glucosamine-6-phosphate [2] turned out to be 1.8 ± 0.33 mM. The “self-cleavage kobs at 40 uM GlcN6P” value in the series with glucosamine-6-phosphate [7] was 0.000186 ± 4e-05 s⁻¹. Moreover, the “self-cleavage kobs at 160 uM GlcN6P” value with glucosamine-6-phosphate [3] worked out at 0.000513 ± 7.7e-05 s⁻¹. The “self-cleavage kobs at 640 uM GlcN6P” value with glucosamine-6-phosphate [4] amounted to 0.00187 ± 0.00028 s⁻¹. Besides, the “self-cleavage kobs at 2500 uM GlcN6P” value in the series with glucosamine-6-phosphate [5] stood at 0.00385 ± 0.00058 s⁻¹. Moreover, in the series with glucosamine-6-phosphate [6], the “self-cleavage kobs at 10000 uM GlcN6P” value was 0.00606 ± 0.0012 s⁻¹.
Regarding A39C U57G, the kcat with glucosamine-6-phosphate [1] was less than 1e-05 s⁻¹. For the same variant, the “self-cleavage kobs at 160 uM GlcN6P” value with glucosamine-6-phosphate [3] is less than 1e-05 s⁻¹.
